Patent publication US20250049970A1, “DLL3 TARGETING PEPTIDES AND CONSTRUCTS THEREOF” (MARIANA ONCOLOGY INC., priority 2023, published 2025)
“And” between values parts separate entries of the source, which are not always exact repeats. Identical values can stand only once. *1 amine or outer side, *2 acyl side, *3 side chain or, on linkers, in order; H or OH if unused. Bridges are numbered along the chain shown (N, C = ends). [ ]: non-standard residue; d: D form. The star is where a group is joined. Ala(piperidin-4-yl) = O=C([C@H](CC1CCN([*:3])CC1)N[*:1])[*:2]; DOTA = O=C(O)CN1CCN(CC(=O)O)CCN(CC(=O)*)CCN(CC(=O)O)CC1; 2Nal = N[C@@H](Cc1ccc2ccccc2c1)C(=O)O; NMetBuAla = CN[C@@H](CC(C)(C)C)C(=O)O; Ile(3-Me) = CCC(C)(C)[C@H](N)C(=O)O; aIle = CC[C@@H](C)[C@H](N)C(=O)O; tBuAla = CC(C)(C)C[C@H](N)C(=O)O; Cha = N[C@@H](CC1CCCCC1)C(=O)O; αMeP = C[C@@]1(C(=O)O)CCCN1

T1: DLL3 on SHP-77 cells (human, UniProt Q9NYJ7 27-618)
T1 construct: SHP-77 cells are human-derived, non-engineered SCLC cells
T1 sequence: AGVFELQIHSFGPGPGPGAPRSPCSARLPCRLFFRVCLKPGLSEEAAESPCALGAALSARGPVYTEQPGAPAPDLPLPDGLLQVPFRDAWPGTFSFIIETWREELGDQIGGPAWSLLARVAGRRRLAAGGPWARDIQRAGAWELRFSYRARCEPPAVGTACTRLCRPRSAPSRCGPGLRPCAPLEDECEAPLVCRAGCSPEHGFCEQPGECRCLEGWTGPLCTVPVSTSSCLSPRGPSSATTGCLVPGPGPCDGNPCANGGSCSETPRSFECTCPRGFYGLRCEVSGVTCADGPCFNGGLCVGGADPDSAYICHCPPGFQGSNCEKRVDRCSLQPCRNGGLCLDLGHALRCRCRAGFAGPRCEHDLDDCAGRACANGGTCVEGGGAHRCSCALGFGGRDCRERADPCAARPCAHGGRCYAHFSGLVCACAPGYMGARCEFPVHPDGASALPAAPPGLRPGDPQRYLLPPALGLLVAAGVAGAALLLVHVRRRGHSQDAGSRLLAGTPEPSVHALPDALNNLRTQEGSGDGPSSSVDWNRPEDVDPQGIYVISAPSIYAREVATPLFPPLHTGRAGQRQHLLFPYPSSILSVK

T2: DLL3 on CT26.DLL3 cells (Homo sapiens (Human), UniProt Q9NYJ7 27-618)
T2 construct: CT26.DLL3 are engineered cells to express DLL3
T2 sequence: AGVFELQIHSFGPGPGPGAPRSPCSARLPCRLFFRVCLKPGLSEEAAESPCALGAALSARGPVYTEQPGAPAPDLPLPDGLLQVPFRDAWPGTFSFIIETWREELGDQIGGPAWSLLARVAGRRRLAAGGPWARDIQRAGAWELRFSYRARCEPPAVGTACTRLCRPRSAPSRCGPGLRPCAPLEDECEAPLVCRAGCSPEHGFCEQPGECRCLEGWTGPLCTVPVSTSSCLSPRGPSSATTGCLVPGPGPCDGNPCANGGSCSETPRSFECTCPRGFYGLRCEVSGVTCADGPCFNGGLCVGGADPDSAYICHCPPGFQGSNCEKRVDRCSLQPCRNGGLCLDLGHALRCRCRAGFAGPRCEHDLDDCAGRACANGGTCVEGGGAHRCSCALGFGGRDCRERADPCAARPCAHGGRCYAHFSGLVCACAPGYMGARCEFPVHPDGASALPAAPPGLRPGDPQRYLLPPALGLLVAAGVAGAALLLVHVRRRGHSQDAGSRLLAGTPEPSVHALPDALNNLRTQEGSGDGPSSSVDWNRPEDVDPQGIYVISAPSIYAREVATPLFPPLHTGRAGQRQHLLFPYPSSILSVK


Tests used:
[1] = biological target: Recombinant human DLL3 aa27-215 protein (human) (UniProt Q9NYJ7); assay: ELISA: anti-DOTA antibody coated on the plate captures the DOTA-containing peptide (titrated 100 nM to 1.69 pM); 2 ug/mL DLL3 aa27-215 (His-tagged) added; detected with anti-His-HRP, OD450; EC50 fitted in GraphPad
DLL3 on SHP-77 cells [2] = biological target: T1, DLL3 on SHP-77 cells; assay: [177Lu]Lu-labelled peptide on SHP-77 cells, 1 h 37 C, gamma counter; A = %<=25
Experimental: (§1) Adherent cell studies: The cells were cultured in appropriate culture media (20 mL) in tissue culture treated T150 flasks at 37° C. and 5% C02. Adherent cells were detached (60-70% confluent) using 5 mL Versene at 37° C. for 3 minutes. After confirming the viability using countess and count of detached cells using Trypan blue, the cells were centrifuged at 4° C. for 5 minutes (1,000 rpm). The cell pellet obtained was washed once with PBS and resuspended in 1% PBSA to obtain the desired cell concentration (5-25 million cells/mL).
(§2) Total uptake: Cells were incubated with 300 μL (0.8 μCi) of the incubation buffer (containing radiolabeled peptide [¹⁷⁷Lu]Lu-test peptide) for 1 hour at 37° C. (Table 10). Post incubation, the cells were pelleted and washed 2 times using cold PBS+1% BSA. The supernatant and washes were combined and counted together as “unbound fraction” in a gamma counter. The cells were then resuspended in 300 μL of 1% PBS+1% BSA and counted in the gamma counter as “bound fraction”.

DLL3 on CT26.DLL3 cells = biological target: T2, DLL3 on CT26.DLL3 cells; assay: [177Lu]Lu-labelled peptide on CT26.DLL3 cells, 1 h 37 C, gamma counter; A = %<=25
Experimental: as §1, §2

[3] = biological target: DLL3 on CT26.DLL3 cells (Homo sapiens (Human)) (UniProt Q9NYJ7); assay: as above
DLL3 on SHP-77 cells [4] = biological target: T1, DLL3 on SHP-77 cells; assay: [177Lu]Lu-labelled peptide on SHP-77 cells, 1 h 37 C, gamma counter; B = 25<%<=50
[5] = biological target: DLL3 on CT26.DLL3 cells (Homo sapiens (Human)) (UniProt Q9NYJ7); assay: [177Lu]Lu-labelled peptide on CT26.DLL3 cells, 1 h 37 C, gamma counter; B = 25<%<=50
DLL3 on SHP-77 cells [6] = biological target: T1, DLL3 on SHP-77 cells; assay: [177Lu]Lu-labelled peptide on SHP-77 cells, 1 h 37 C, gamma counter; C = %>50

| Binder | EC50 [1] [nM] | % Binding (DLL3 on SHP-77 cells [2]) [%] | % Binding (DLL3 on CT26.DLL3 cells) [%] | further results |
| --- | --- | --- | --- | --- |
| Ac-WT[tBuAla]C[Ala(piperidin-4-yl)]N[2Nal]K(DOTA)DCW[αMeP]-NH2 (bridge 4-10; not fully specified (bridges)) [Cpd No. 437] | 2.86 | – | – | – |
| Ac-WT[aIle]CNN[2Nal]K(DOTA)DCWP-NH2 (disulfide 4-10; SMILES CC[C@@H](C)[C@H](NC(=O)[C@@H](NC(=O)[C@H](Cc1c[nH]c2ccccc12)NC(C)=O)[C@@H](C)O)C(=O)N[C@H]1CSSC[C@@H](C(=O)N[C@@H](Cc2c[nH]c3ccccc23)C(=O)N2CCC[C@H]2C(N)=O)NC(=O)[C@H](CC(=O)O)NC(=O)[C@H](CCCCNC(=O)CN2CCN(CC(=O)O)CCN(CC(=O)O)CCN(CC(=O)O)CC2)NC(=O)[C@H](Cc2ccc3ccccc3c2)NC(=O)[C@H](CC(N)=O)NC(=O)[C@H](CC(N)=O)NC1=O) [Cpd No. 322] | – | ≤ 25 | ≤ 25 | – |
| Ac-WT[Cha]CNN[2Nal]K(DOTA)DCWP-NH2 (disulfide 4-10; SMILES CC(=O)N[C@@H](Cc1c[nH]c2ccccc12)C(=O)N[C@H](C(=O)N[C@@H](CC1CCCCC1)C(=O)N[C@H]1CSSC[C@@H](C(=O)N[C@@H](Cc2c[nH]c3ccccc23)C(=O)N2CCC[C@H]2C(N)=O)NC(=O)[C@H](CC(=O)O)NC(=O)[C@H](CCCCNC(=O)CN2CCN(CC(=O)O)CCN(CC(=O)O)CCN(CC(=O)O)CC2)NC(=O)[C@H](Cc2ccc3ccccc3c2)NC(=O)[C@H](CC(N)=O)NC(=O)[C@H](CC(N)=O)NC1=O)[C@@H](C)O) [Cpd No. 323] | – | ≤ 25 | ≤ 25 | – |
| Ac-WT[Ile(3-Me)]C[Ala(piperidin-4-yl)]N[2Nal]K(DOTA)DCWP-NH2 (disulfide 4-10) [Cpd No. 302] | – | – | – | % Binding [3]: < 25%; % Binding (DLL3 on SHP-77 cells [4]): > 25% and < 50% |
| Ac-WT[tBuAla]C[Ala(piperidin-4-yl)]N[2Nal]K(DOTA)DCWP-NH2 (bridge 4-10; not fully specified (bridges)) [Cpd No. 94] | 2.19 | – | – | % Binding [5]: > 25% and < 50% |
| Ac-WT[NMetBuAla]C[Ala(piperidin-4-yl)]N[2Nal]K(DOTA)DCW[αMeP]-NH2 (bridge 4-10; not fully specified (bridges)) [Cpd No. 236] | 0.341 | – | – | % Binding (DLL3 on SHP-77 cells [6]): > 50% |
